Experimental data as given in US20230203142A1, “TREATMENT OF METABOLIC DISORDERS THROUGH THE TARGETING OF A NOVEL CIRCULATING HORMONE COMPLEX” (The President and Fellows of Harvard College, priority 2020, published 2023).

Experiments:
[1] = tested on: diet-induced obese (DIO) mice; assay: a-Ab treatment of diet-induced obese mice; type: in vivo, mouse
Description: Given the essential role for appropriate beta cell function and insulin secretion in the pathogenesis of diabetes, the pancreata of FABP4 deficient (FABP4^−/−) mice were examined for beta cell mass and insulin content. Animal care and experimental procedures were performed with approval from animal care committees of Harvard University. All mice were housed on a 12-hour light/dark cycle with ad libitum access to chow (PicoLab 5058 LabDiet) and water. FABP4−/− and WT mice were littermates obtained from heterozygous breeding. High fat diet (HFD) fed mice were provided ad libitum access to HFD (60% kcal from fat; Research Diets Inc., D12492i) for 14 weeks beginning at 4 weeks of age. Pancreata and isolated islets were obtained from 7-8-week-old male mice. Blood was collected every other week for 6 hour fasting plasma insulin and FABP4 levels. For acute FABP4 treatment, 10 μg of human recombinant FABP4 (produced in-house) or sterile PBS was injected intraperitoneally. Blood was collected from the tail vein at 0, 10, 20, 30, 60, 120, 240- and 360-minutes post injection for measurement of blood glucose, plasma insulin, and FABP4 levels.
(§1) For the immunohistochemistry, pancreata were dissected and fixed in 10% zinc buffered formalin for 24-48 hrs before being washed and stored in 70% ethanol. Samples were paraffin embedded, and sectioned in steps 250 μm apart. Immunostaining for insulin and glucagon was performed as described previously (Prentice et al., 2014; Rezania et al., 2014). Images of each section were acquired using Aperio Imagescope at 20× magnification. The beta- or alpha-cell area was calculated by using positive pixel count analysis (Aperio ImageScope). Islet number and size was determined by manually circling insulin positive clusters in the Aperio ImageScope software. Two blinded individuals independently performed manual analysis and insulitis scoring.
Antibodies were stored at 4° c. at a stock concentration of 10 mg/ml in PBS. WT diet-induced obese (DIO) male mice were treated twice weekly with 33 mg/kg bodyweight of a-Ab or control antibody (c-Ab) in a final volume of 150 μl, injected subcutaneously for 3 weeks after 12 weeks of high fat breeding, as described (see US20160319003, incorporated herein by reference, and Burak et al., 2015). […] Glucose tolerance test were performed as previously described (Liu, Y. et al. Cell Rep 14, 2889-2900). Briefly, both chow and high fat diet fed mice were evaluated simultaneously. Before intraperitoneal glucose tolerance tests, mice were fasted 16 hr. overnight, before injection of 0.75 g/kg body weight of glucose. Blood glucose was evaluated at 0, 15, 30, 45, 60, 90, and 120-min post-injection.
as §1, with “Pancreata were” for “For the immunohistochemistry, pancreata were”, “for insulin, glucagon, BrdU” for “for insulin”, “and Cleaved Caspase 3” for “and glucagon”

non-diabetic NOD mice = assay: Immune phenotyping (FACS) of tissues of treated NOD mice; type: in vivo, mouse; details: mean
Description: To perform immune phenotyping, mice were euthanized with CO2 and cardiac perfusion performed with 40 ml of sterile PBS. Whole pancreas, pancreatic lymph nodes (PLN), inguinal lymph nodes (ILN), and spleen were harvested, diced into 1 mm pieces, placed in digestion buffer (RPMI 1640, lmg/ml Collagenase Type IV, 10 U/ml DNAsel, and 1% BSA), and incubated at 37° C. for 20 min shaking at 250 rpm. Pancreas samples were filtered through a 40 μm nylon strainer into a fresh 50 ml tube, and fresh media added up to 40 ml (RPMI 1640, 1% FBS, 1% Sodium Pyruvate, 1.56 ul β-mercaptoethanol). Tubes were then centrifuged at 1500 rpm for 10 min, supernatant removed, and cells resuspended in 2 ml fresh media. Resuspended cells were passed through a 40 μm nylon filter into a 15 ml round-bottomed polystyrene tube. For PLN, ILN, and spleen, digestion samples were filtered through a 40 μm nylon strainer into a 15 ml round bottom polystyrene tube, and lml of media was added. Spleen samples had supernatant removed, and lml ACK lysis buffer (Thermo Scientific A1049201) added for 2 min at room temperature. Samples were then centrifuged at 1500 rpm for 5 min, and resuspended in 1 ml media. All samples were centrifuged at 1500 rpm for 5 min, supernatant removed, and cells resuspended in FACS buffer (5% BSA in cold PBS; 0.5 ml for PLN and ILN, lml for pancreas and spleen). Staining and FACS analysis were performed as previously described (Engin et al., 2013).

B1: a-Ab: monoclonal antibody previously reported as CA33; heavy chain SEQ ID NO 446, light chain SEQ ID NO 447; binds FABP4 and NDPK (antibody, listed as Homo sapiens)
heavy: QSVEESGGRLVTPGTPLTLTCTVSGFSLSTYYMSWVRQAPGKGLEWIGIIYPSGSTYCASWAKGRFTISKASTTVDLKITSPTTEDTATYFCARPDNDGTSGYLSGFGLWGQGLVTVSSAKTTPPSVYPLAPGSAAQTNSMVTLGCLVKGYFPEPVTVTWNSGSLSSGVHTFPAVLQSDLYTLSSSVTVPSSTWPSETVTCNVAHPASSTKVDKKIVPRDC
light: DVVMTQTPASVSEPVGGTVTIKCGASEDISRYLVWYQQKPGQPPKRLIYKASTLASGVPSRFKGSGSGTDFTLTISDLECDDAATYYCQCTYGTYAGSFFYSFGGGTEVVVERTDAAPTVSIFPPSSEQLTSGGASVVCFLNNFYPKDINVKWKIDGSERQNGVLNSWTDQDSKDCTYSMSSTLTLTKDEYERHNSYTCEATHKTSTSPIVKSFNRNEC
beta cell proliferation, Ki67 staining ([1]; DIO model, three weeks): small but significant increase
CC3 positive beta cells ([1]; DIO model, vs controls): profound reduction
glycemic excursion during glucose tolerance test (GTT) ([1]; WT DIO mice, 33 mg/kg twice weekly s.c.): improved
6 hr fasting glucose levels ([1]; WT DIO mice, 33 mg/kg twice weekly s.c., three weeks): reduced
beta cell mass ([1]; pancreata of DIO mice, 3 weeks): trend towards increased
number of islets ([1]; pancreata of DIO mice, 3 weeks): increased
glucagon positive area ([1]; pancreatic sections, DIO mice): significant reduction
ILN Cytotoxic T-Cells (non-diabetic NOD mice; inguinal lymph nodes): 21.4%
Spleen Cytotoxic T-Cells (non-diabetic NOD mice): 11.5%
PLN Cytotoxic T-Cells (non-diabetic NOD mice; pancreatic lymph nodes): 15.7%
